# Test results: paper PMC3114773
# Target: β-arrestin2 (β-arr2) (UniProt Q91YI4)
# Experiment: co-IP, anti-Myc IP, anti-GFP blot
# Settings: reference: wild type; sites S592,S594,T597,S599,S615,S619,S620,S642,S666,S774,S777,S791
substance,measurement,value
"Smo (mSmo, mammalian Smoothened) (from UniProt P56726) SA mutant (taken as SA0–5)",binding against the reference,weaker
